Targets include HLA-A*11:01; HLA-A*03:01; HLA-A*31:01; HLA-A*68:01; HLA-A*33:01.
Assay in all cases: IEDB peptide-MHC binding, purified MHC/competitive/radioactivity; filed as Kd, often an IC50 or EC50 that approximates it; ≥ and ≤ were set here for values at or beyond the usual limits of such assays
Where [1] appears, read: source organism: Lymphocytic choriomeningitis virus (strain Armstrong).
[2] abbreviates: source organism: Vaccinia virus WR.
Setting [3] is: source organism: Mammarenavirus machupoense.
The mark [4] stands for this setting: source organism: SARS coronavirus Tor2.
Setting [5] is: source organism: Mammarenavirus brazilense.
Setting [6] is: source organism: Mammarenavirus lassaense.
Where [7] appears, read: source organism: Mammarenavirus juninense.

Take SCQGSDDIR: the Kd (commonly the concentration at which binding is half-saturated) with HLA-A*11:01 (setting [1]) is ≥ 77900 nM; with HLA-A*03:01 (setting [1]), ≥ 78000 nM; in the assay with HLA-A*31:01 (setting [1]), ≥ 33900 nM; in the assay with HLA-A*68:01 (setting [1]) it was ≥ 21800 nM; with HLA-A*33:01 (setting [1]) it was ≥ 51400 nM.

For the sequence IIFLKLFKK, the Kd in the assay with HLA-A*11:01 (setting [2]) is 4.44 nM; with HLA-A*03:01 (setting [2]) it was 8.76 nM; in the assay with HLA-A*31:01 (setting [2]), 5.67 nM; with HLA-A*68:01 (setting [2]), 13.2 nM; with HLA-A*33:01 (setting [2]) it was 4.85 nM.

Regarding ESRDRKWLY, the dissociation constant Kd in the assay with HLA-A*11:01 (setting [2]) was 10300 nM; in the assay with HLA-A*03:01 (setting [2]) it was ≥ 51200 nM; in the assay with HLA-A*31:01 (setting [2]), ≥ 61000 nM; with HLA-A*68:01 (setting [2]) it was 3930 nM; with HLA-A*33:01 (setting [2]), 10100 nM.

For LTMQRLLANH, the Kd with HLA-A*11:01 (setting [3]) worked out at 1850 nM; with HLA-A*03:01 (setting [3]), 876 nM; in the assay with HLA-A*31:01 (setting [3]), 1860 nM; in the assay with HLA-A*68:01 (setting [3]) it was 1610 nM; in the assay with HLA-A*33:01 (setting [3]), 8440 nM.

On to SLCFLLTQK, for which the Kd with HLA-A*11:01 (setting [4]) was found to be 22.7 nM; in the assay with HLA-A*03:01 (setting [4]), 25.6 nM; with HLA-A*31:01 (setting [4]), 231 nM; in the assay with HLA-A*68:01 (setting [4]) it was 1200 nM; in the assay with HLA-A*33:01 (setting [4]), 5560 nM.

With IAARILSEK, the dissociation constant Kd stood at 13.5 nM with HLA-A*11:01 (setting [2]); 14.9 nM with HLA-A*03:01 (setting [2]); 4550 nM with HLA-A*31:01 (setting [2]); 11.8 nM with HLA-A*68:01 (setting [2]); 4870 nM in the assay with HLA-A*33:01 (setting [2]).

Regarding GIFKNNDVR, the Kd was 1660 nM in the assay with HLA-A*11:01 (setting [2]); 2210 nM in the assay with HLA-A*03:01 (setting [2]); 11500 nM with HLA-A*31:01 (setting [2]); 132 nM in the assay with HLA-A*68:01 (setting [2]); ≥ 28400 nM with HLA-A*33:01 (setting [2]).

With YVIRHVDGK, the dissociation constant (Kd) in the assay with HLA-A*11:01 (setting [2]) is 10.2 nM; with HLA-A*03:01 (setting [2]), 1450 nM; in the assay with HLA-A*31:01 (setting [2]), ≥ 77900 nM; with HLA-A*68:01 (setting [2]), 1.72 nM; with HLA-A*33:01 (setting [2]), ≥ 77700 nM.

For SVTLDFTKFH, the equilibrium dissociation constant (Kd) worked out at 7100 nM in the assay with HLA-A*11:01 (setting [5]); 7520 nM in the assay with HLA-A*03:01 (setting [5]); 10100 nM with HLA-A*31:01 (setting [5]); 18400 nM with HLA-A*68:01 (setting [5]); 9440 nM in the assay with HLA-A*33:01 (setting [5]).

As for TLDESFLGR, the Kd in the assay with HLA-A*11:01 (setting [4]) is 669 nM; with HLA-A*03:01 (setting [4]), 1430 nM; with HLA-A*31:01 (setting [4]), 841 nM; with HLA-A*68:01 (setting [4]), 947 nM; with HLA-A*33:01 (setting [4]) it was 1120 nM.

Regarding VSIILANERY, the Kd in the assay with HLA-A*11:01 (setting [2]) is 1420 nM; in the assay with HLA-A*03:01 (setting [2]) it was 12800 nM; in the assay with HLA-A*31:01 (setting [2]), 8590 nM; with HLA-A*68:01 (setting [2]), 3850 nM; with HLA-A*33:01 (setting [2]) it was 19000 nM.

On to EISSNDNAK, for which the Kd in the assay with HLA-A*11:01 (setting [2]) is 443 nM; in the assay with HLA-A*03:01 (setting [2]), 16800 nM; with HLA-A*31:01 (setting [2]) it was ≥ 55600 nM; in the assay with HLA-A*68:01 (setting [2]), 31 nM; with HLA-A*33:01 (setting [2]) it was 9600 nM.

In the case of LLDSYFVVK, the Kd stood at 47.2 nM in the assay with HLA-A*11:01 (setting [4]); 40.3 nM in the assay with HLA-A*03:01 (setting [4]); 1270 nM with HLA-A*31:01 (setting [4]); 2060 nM with HLA-A*68:01 (setting [4]); 12700 nM in the assay with HLA-A*33:01 (setting [4]).

Turning to AVFKDSFLR, the Kd is 6.49 nM with HLA-A*11:01 (setting [2]); 16.2 nM in the assay with HLA-A*03:01 (setting [2]); 3.03 nM with HLA-A*31:01 (setting [2]); 0.821 nM with HLA-A*68:01 (setting [2]); 323 nM in the assay with HLA-A*33:01 (setting [2]).

For the sequence QCWRSFLNK, the Kd was 4950 nM in the assay with HLA-A*11:01 (setting [6]); 567 nM in the assay with HLA-A*03:01 (setting [6]); 880 nM in the assay with HLA-A*31:01 (setting [6]); 13600 nM with HLA-A*68:01 (setting [6]); 743 nM with HLA-A*33:01 (setting [6]).

For AISKLGINY, the Kd came out at 22 nM with HLA-A*11:01 (setting [2]); 178 nM with HLA-A*03:01 (setting [2]); 2740 nM in the assay with HLA-A*31:01 (setting [2]); 1340 nM in the assay with HLA-A*68:01 (setting [2]); 8450 nM with HLA-A*33:01 (setting [2]).

In the case of QSLCFLLTQK, the Kd in the assay with HLA-A*11:01 (setting [4]) is 10.8 nM; in the assay with HLA-A*03:01 (setting [4]) it was 6.2 nM; with HLA-A*31:01 (setting [4]), 54.2 nM; in the assay with HLA-A*68:01 (setting [4]) it was 63.8 nM; with HLA-A*33:01 (setting [4]) it was 1470 nM.

Take ANKQYIHCFR: the Kd in the assay with HLA-A*11:01 (setting [7]) was ≥ 46600 nM; with HLA-A*03:01 (setting [7]) it was 17800 nM; with HLA-A*31:01 (setting [7]), 12.8 nM; in the assay with HLA-A*68:01 (setting [7]) it was 9810 nM; with HLA-A*33:01 (setting [7]), 130 nM.

For the sequence SIYSRPKIK, the Kd was 6.62 nM in the assay with HLA-A*11:01 (setting [2]); 2.67 nM with HLA-A*03:01 (setting [2]); 4890 nM in the assay with HLA-A*31:01 (setting [2]); 398 nM with HLA-A*68:01 (setting [2]); ≥ 37900 nM in the assay with HLA-A*33:01 (setting [2]).

Take CTDPSERVFK: the equilibrium dissociation constant (Kd) was 10 nM with HLA-A*11:01 (setting [2]); 543 nM with HLA-A*03:01 (setting [2]); 2930 nM with HLA-A*31:01 (setting [2]); 56 nM with HLA-A*68:01 (setting [2]); ≥ 54500 nM with HLA-A*33:01 (setting [2]).

Turning to LFIDRGSIK, the Kd with HLA-A*11:01 (setting [2]) was determined as 14300 nM; in the assay with HLA-A*03:01 (setting [2]), 1720 nM; with HLA-A*31:01 (setting [2]) it was 2140 nM; with HLA-A*68:01 (setting [2]) it was 1290 nM; with HLA-A*33:01 (setting [2]), 1110 nM.

Regarding TILLSDKGK, the Kd was 81.2 nM with HLA-A*11:01 (setting [2]); 1540 nM with HLA-A*03:01 (setting [2]); 7390 nM in the assay with HLA-A*31:01 (setting [2]); 198 nM in the assay with HLA-A*68:01 (setting [2]); ≥ 44300 nM with HLA-A*33:01 (setting [2]).

Take QQLRVESSSK: the Kd with HLA-A*11:01 (setting [4]) was determined as 721 nM; with HLA-A*03:01 (setting [4]), 588 nM; in the assay with HLA-A*31:01 (setting [4]), 435 nM; with HLA-A*68:01 (setting [4]), 1950 nM; with HLA-A*33:01 (setting [4]), 1260 nM.
